T1: human glucose-dependent insulinotropic polypeptide receptor (hGIP-R) (human, UniProt P48546 22-466)
T1 sequence (looked up): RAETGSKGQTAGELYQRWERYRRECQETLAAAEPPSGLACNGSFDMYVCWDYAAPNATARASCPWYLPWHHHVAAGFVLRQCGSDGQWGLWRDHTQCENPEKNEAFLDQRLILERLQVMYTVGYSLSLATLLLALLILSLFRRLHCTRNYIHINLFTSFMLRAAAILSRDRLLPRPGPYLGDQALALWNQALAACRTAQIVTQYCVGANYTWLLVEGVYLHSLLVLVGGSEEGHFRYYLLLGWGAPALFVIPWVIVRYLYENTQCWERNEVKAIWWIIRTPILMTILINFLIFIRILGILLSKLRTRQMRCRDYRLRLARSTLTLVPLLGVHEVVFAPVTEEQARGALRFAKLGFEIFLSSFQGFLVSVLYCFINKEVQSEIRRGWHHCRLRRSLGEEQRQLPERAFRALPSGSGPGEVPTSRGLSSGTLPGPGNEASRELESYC

B1: Example 1 (Aib2, Aib13, Nal22, Aib29 GIP analog, 42 residues) (peptide)
peptide: Y[Aib]EGTFTSDYSI[Aib]LDKIAQRA[1Nal]VQWLIA[Aib]KGKKQEWKHQITQ
modifications: not fully specified (C-terminus)
notes: Not PEGylated
B2: Aib2, Aib13, Nal22, Aib29, Cys43(PEG20K), Cys44(PEG20K)-GIP (Example 4, PEGylated with mPEG-MAL) (peptide)
peptide: Y[Aib]EGTFTSDYSI[Aib]LDKIAQRA[1Nal]VQWLIA[Aib]KGKKQEWKHQITQC([maleimide-mPEG 20 kDa])C([maleimide-mPEG 20 kDa])-NH2
notes: also called Ex 4
B3: Aib2, Aib13, Nal22, Aib29, Cys43(PEG20K), Cys44(PEG20K)-GIP (Example 5, PEGylated with mPEG-Iodoacetamide) (peptide)
peptide: Y[Aib]EGTFTSDYSI[Aib]LDKIAQRA[1Nal]VQWLIA[Aib]KGKKQEWKHQITQC([acetamide-mPEG 20 kDa])C([acetamide-mPEG 20 kDa])-NH2
B4: Example 2 (Aib2, Aib13, Aib29 GIP analog, 42 residues) (peptide)
peptide: Y[Aib]EGTFTSDYSI[Aib]LDKIAQRAFVQWLIA[Aib]KGKKQEWKHQITQ
modifications: not fully specified (C-terminus)
notes: Not PEGylated
B5: Aib2, Aib13, Aib29, Cys43(PEG20K), Cys44(PEG20K)-GIP (Example 3, PEGylated with mPEG-MAL) (peptide)
peptide: Y[Aib]EGTFTSDYSI[Aib]LDKIAQRAFVQWLIA[Aib]KGKKQEWKHQITQC([maleimide-mPEG 20 kDa])C([maleimide-mPEG 20 kDa])-NH2

The text below walks through data of patent US20110237503A1 (Eli Lilly, published 2011).

Where no end group is shown, it is not given here. Side-chain parts run from the residue outwards. [ ]: non-standard residue; d: D form. maleimide = maleimide end of mPEG-20 kDa maleimide, which attaches the 20 kDa PEG to the Cys thiol; 1Nal = N[C@@H](Cc1cccc2ccccc12)C(=O)O; Aib = CC(C)(N)C(=O)O

The first assay has as its target T2, human glucagon-like peptide 1 receptor (hGLP-1-R) (human, UniProt P43220 24-463). As to the kind of experiment: cell-based or functional assay.
As to B1, the “EC50 (relative), intracellular cAMP in hGLP-1-R-293HEK cells, HTRF” value came out at 36 pM.
Turning to B2, the “EC50 (relative), intracellular cAMP in hGLP-1-R-293HEK cells, HTRF” value is 844 pM.
On to B3, for which the “EC50 (relative), intracellular cAMP in hGLP-1-R-293HEK cells, HTRF” value was determined as 959 pM.
As to B4, the “EC50 (relative), intracellular cAMP in hGLP-1-R-293HEK cells, HTRF” value was 45 pM.
For the molecule B5, the “EC50 (relative), intracellular cAMP in hGLP-1-R-293HEK cells, HTRF” value is 1110 pM.

In another assay the target is T3, human glucagon receptor (hGlucR) (human, UniProt P47871 26-477).
T3 construct: whole, on cells
T3 sequence (P47871 26-477): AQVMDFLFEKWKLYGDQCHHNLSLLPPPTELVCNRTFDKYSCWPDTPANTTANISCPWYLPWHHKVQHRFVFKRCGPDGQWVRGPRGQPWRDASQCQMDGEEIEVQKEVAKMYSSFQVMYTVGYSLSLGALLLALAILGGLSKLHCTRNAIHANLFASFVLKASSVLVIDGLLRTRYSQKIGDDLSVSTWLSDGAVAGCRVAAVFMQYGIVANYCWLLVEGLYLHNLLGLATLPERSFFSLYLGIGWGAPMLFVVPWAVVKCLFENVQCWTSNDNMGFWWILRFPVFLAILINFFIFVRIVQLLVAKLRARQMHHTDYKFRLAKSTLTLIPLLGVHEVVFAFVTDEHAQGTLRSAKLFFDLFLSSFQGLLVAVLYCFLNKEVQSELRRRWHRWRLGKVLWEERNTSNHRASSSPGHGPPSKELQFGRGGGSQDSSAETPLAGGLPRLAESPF
As to the kind of experiment: ratio of Ki values from SPA competition binding assays (Gluc-R against GIP-R and GLP-1-R).
As to B1, the “selectivity ratio versus Gluc-R” value was at least 100 times.
On the same count and under the same terms, next, B2: at least 100 times; B3: at least 100 times.
Same read-out and setting: next, B4: at least 100 times; B5: at least 100 times.

Another assay addresses T1, human glucose-dependent insulinotropic …. As to the kind of experiment: cell-based or functional assay.
With B1, the “EC50 (relative), intracellular cAMP in hGIP-R-CHO-S cells, HTRF” value turned out to be 5 pM.
Consider B2, for which the “EC50 (relative), intracellular cAMP in hGIP-R-CHO-S cells, HTRF” value turned out to be 277 pM.
As to B3, the “EC50 (relative), intracellular cAMP in hGIP-R-CHO-S cells, HTRF” value is 207 pM.
The same measure, in the same setting: next, B4: 23 pM; B5: 244 pM.

For a further assay the target is unchanged. The experiment in a line: SPA competition, [125I]GIP displacement, hGIP-R CHO-S membranes. The method, then: The peptides analogs are serially diluted into binding buffer. […] Then, 90 μL membranes (4 μg/well), 50 μL [¹²⁵I] […] Plates are read with a MicroBeta® scintillation counter after 12 hours of settling time at room temperature.
With B1, affinity was put at a Ki of 44 pM.
As to B2, the affinity, expressed as Ki, was 8230 pM.
Regarding B3, the Ki (commonly a measure of affinity in units of concentration, obtained from inhibition or displacement) was found to be 9220 pM.
B4 registered a Ki of 23 pM.
In turn, B5 had a Ki of 9790 pM.

The target in another assay is T2, human glucagon-like peptide 1 receptor …. As to the kind of experiment: SPA competition, I-125 GLP-1 displacement, hGLP-1-R 293HEK membranes. The method, then:
The binding buffer contains 25 mM HEPES, pH 7.4, 2.5 mM CaCl₂, 1 mM MgCl₂, 0.1% fatty acid free BSA, 0.003% Tween20, and Roche Complete™ Inhibitors without EDTA. […] The peptide analog is dissolved in PBS and serially diluted in binding buffer. […] Plates are read with a PerkinElmer Life and Analytical Sciences Trilux MicroBeta® scintillation counter after 12 hours of settling time at room temperature.
The IC₅₀ concentration is converted to Ki using the Cheng-Prusoff equation.
B1: the affinity corresponds to a Ki of 96 pM.
Turning to B2, the Ki amounted to 5270 pM.
Take B3: the Ki came out at 6200 pM.
B4 came in with a Ki of 59 pM.
Take B5: the Ki came out at 9000 pM.

For the next assay the target is unchanged. As to the kind of experiment: SPA competition binding assay.
B1 displayed a Ki below 100000 pM.
Same read-out and setting: for B2 the value was below 100000 pM.
On to B3, for which the inhibitory constant (Ki) is below 100000 pM.
Take B4: the Ki is below 100000 pM.
Molecule B5 returned a Ki below 100000 pM.

For the next assay, the target named is T1, human glucose-dependent insulinotropic …. As to the kind of experiment: SPA competition binding assay.
On to B1, for which the Ki was below 100000 pM.
As for B2, the Ki is below 100000 pM.
For the molecule B3, the Ki was below 100000 pM.
On to B4, for which the Ki is below 100000 pM.
B5: the Ki was below 100000 pM.
